Data as given in article PMC10772735, “Characterization of erythroferrone oligomerization and its impact on BMP antagonism” (The Journal of Biological Chemistry, 2023).
Values joined by “and” are separate entries in the source; they are usually repeats but may differ in a detail not shown here. Equal entries are not always repeated. Where two headings read alike, the source gives them in different places. One block for each molecule: values may come before it.

Columns and labels:
[1] = molecular target: Alk3-Fc ECD (Homo sapiens) (UniProt P36894); settings: cited from earlier work
Alk3-Fc ECD (Homo sapiens), sequence (P36894 24-152): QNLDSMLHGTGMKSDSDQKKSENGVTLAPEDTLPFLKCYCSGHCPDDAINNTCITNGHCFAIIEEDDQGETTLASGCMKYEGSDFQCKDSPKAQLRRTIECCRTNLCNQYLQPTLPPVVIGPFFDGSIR

[2] = molecular target: BMP6 (UniProt P22004); assay: SPR competition (BMP6 + ERFE over Alk3-Fc captured on protein A chip); settings: curve maximum near the ~300 s dotted line, RU is residual BMP6 binding to Alk3-Fc (lower RU = more competition by ERFE) …, read off a plot
[3] = molecular target: the molecule itself; assay: AUC; sedimentation velocity, ΔC1Q ERFE mutants, 0.5 mg/ml, 40,000 RPM, 20 °C, absorbance at 230 nm, never frozen protein after dialysis; oligomeric states assigned qualitatively from approximate masses
[4] = molecular target: T1, BMP6 (UniProt P22004 375-513); assay: cell-based or functional assay
T1 sequence (looked up): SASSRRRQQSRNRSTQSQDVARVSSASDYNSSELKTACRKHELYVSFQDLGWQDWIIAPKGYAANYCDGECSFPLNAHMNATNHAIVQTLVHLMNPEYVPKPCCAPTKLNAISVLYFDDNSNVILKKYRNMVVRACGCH

[5] = molecular target: the molecule itself; assay: non-reducing SDS-PAGE; purified ERFE analysed by SDS-PAGE under reducing and nonreducing conditions; shows only disulfide-linked species
[6] = molecular target: T2, BMP6, P22004; assay: SPR competition (BMP6 + ERFE over Alk3-Fc captured on protein A chip); settings: chain shown with the change, curve maximum near the ~300 s dotted line, read off a plot
T2 chain: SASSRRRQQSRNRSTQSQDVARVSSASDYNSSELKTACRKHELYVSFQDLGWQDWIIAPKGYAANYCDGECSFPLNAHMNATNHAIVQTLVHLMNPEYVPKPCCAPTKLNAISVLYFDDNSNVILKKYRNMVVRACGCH

[7] = molecular target: T1, BMP6; assay: cell-based or functional assay; remark: listed apart in the source
[8] = molecular target: T3, BMP7 (UniProt P18075 293-431); assay: cell-based or functional assay
T3 sequence (looked up): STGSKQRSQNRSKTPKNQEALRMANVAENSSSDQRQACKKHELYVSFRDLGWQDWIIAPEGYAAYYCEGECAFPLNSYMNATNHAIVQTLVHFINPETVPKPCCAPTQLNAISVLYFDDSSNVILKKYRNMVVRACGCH

[9] = molecular target: BMP2 (UniProt P12643 283-396); assay: cell-based or functional assay
BMP2, sequence (P12643 283-396): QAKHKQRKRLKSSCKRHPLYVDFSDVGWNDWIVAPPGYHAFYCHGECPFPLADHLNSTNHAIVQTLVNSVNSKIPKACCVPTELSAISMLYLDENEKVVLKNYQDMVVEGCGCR

[10] = molecular target: T4, GDF5 (UniProt P43026 382-501); assay: cell-based or functional assay
T4 sequence (looked up): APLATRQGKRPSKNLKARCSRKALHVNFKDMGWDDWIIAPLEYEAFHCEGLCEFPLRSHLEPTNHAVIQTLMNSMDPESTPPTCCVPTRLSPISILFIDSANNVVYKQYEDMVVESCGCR

[11] = molecular target: the molecule itself; assay: AUC; sedimentation velocity, full-length ERFE constructs, 0.5 mg/ml, 20,000 rpm, 20 °C, absorbance at 230 nm, freshly purified never frozen protein after dialysis (20 mM Hepes pH 7.5, 150 mM NaCl, 5 mM CaCl2); oligomeric states assigned qualitatively from approximate masses
[12] = molecular target: T1, BMP6; assay: cell-based or functional assay; remark: listed apart in the source

Molecule: BMP6 (from UniProt P22004)
Kd [1]: 62.5 nM

B3: ΔC1Q ERFE (domain or fragment, human, UniProt Q4G0M1 44-207, looked up)
chain: PPPGNELPRGPGESRAGPAARPPEPTAERAHSVDPRDAWMLFVRQSDKGVNGKKRSRGKAKKLKFGLPGPPGPPGPQGPPGPIIPPEALLKEFQLLLKGAVRQRERAEPEPCTCGPAGPVAASLAPVSATAGEDDDDVVGDVLALLAAPLAPGPRAPRVEAAFL
notes: erythroferrone (ERFE), human, construct from residue 44 with a stop codon introduced at C208, removing the entire C1Q domain; source: Expi293, transfected, purified; not shown: FLAG, N-terminal, kept
stoichiometry N [3]: 3 | stoichiometry N [5]: 2 | IC50 of inhibition of 2.5 nM BMP6 signalling, luciferase reporter, BRITER cells [4]: 7.8 nM

B5: N-terminally flag-tagged hERFE (residues 44–354), WT erythroferrone, Q4G0M1 CLR* (center PGP in the CLR to SSS); C155S; C157S; C208S (protein)
chain: PPPGNELPRGPGESRAGPAARPPEPTAERAHSVDPRDAWMLFVRQSDKGVNGKKRSRGKAKKLKFGLPGPPGPSSSQGPPGPIIPPEALLKEFQLLLKGAVRQRERAEPEPSTSGPAGPVAASLAPVSATAGEDDDDVVGDVLALLAAPLAPGPRAPRVEAAFLSRLRRDALVERRALHELGVYYLPDAEGAFRRGPGLNLTSGQYRAPVAGFYALAATLHVALGEPPRRGPPRPRDHLRLLICIQSRCQRNASLEAIMGLESSSELFTISVNGVLYLQMGQWTSVFLDNASGCSLTVRSGSHFSAVLLGV
response ([6]; 10 nM BMP6 + 5 nM CLR*Cys* ERFE, RU is residual BMP6 binding to Alk3-Fc (lower RU = more competition by ERFE), BMP6 …): 11 RU | response ([6]; 10 nM BMP6 + 10 nM CLR*Cys* ERFE, RU is residual BMP6 binding to Alk3-Fc (lower RU = more competition by ERFE), BMP6 …): 8.7 RU | response ([6]; 10 nM BMP6 + 20 nM CLR*Cys* ERFE, RU is residual BMP6 binding to Alk3-Fc (lower RU = more competition by ERFE), BMP6 …): 6.2 RU | response ([6]; 10 nM BMP6 + 40 nM CLR*Cys* ERFE, RU is residual BMP6 binding to Alk3-Fc (lower RU = more competition by ERFE), BMP6 …): 4 RU | response ([6]; 10 nM BMP6 + 80 nM CLR*Cys* ERFE, RU is residual BMP6 binding to Alk3-Fc (lower RU = more competition by ERFE), BMP6 …): 2.3 RU | response ([6]; 10 nM BMP6 + 160 nM CLR*Cys* ERFE, RU is residual BMP6 binding to Alk3-Fc (lower RU = more competition by ERFE) …): 1.2 RU

B6: N-terminally flag-tagged hERFE (residues 44–354), WT erythroferrone (natural protein, human, UniProt Q4G0M1 44-354, looked up)
chain: PPPGNELPRGPGESRAGPAARPPEPTAERAHSVDPRDAWMLFVRQSDKGVNGKKRSRGKAKKLKFGLPGPPGPPGPQGPPGPIIPPEALLKEFQLLLKGAVRQRERAEPEPCTCGPAGPVAASLAPVSATAGEDDDDVVGDVLALLAAPLAPGPRAPRVEAAFLCRLRRDALVERRALHELGVYYLPDAEGAFRRGPGLNLTSGQYRAPVAGFYALAATLHVALGEPPRRGPPRPRDHLRLLICIQSRCQRNASLEAIMGLESSSELFTISVNGVLYLQMGQWTSVFLDNASGCSLTVRSGSHFSAVLLGV
notes: erythroferrone (ERFE, FAM132B), human, residues 44-354; By AUC a mixture of trimer, hexamer and a little high molecular weight species; also called WT ERFE; N-Flag ERFE; not shown: FLAG, N-terminal, kept
IC50 of ERFE inhibition of BMP6 (2.5 nM) signalling, BMP responsive luciferase assay (BRE promoter) [7]: 5.2 nM | IC50 of ERFE inhibition of BMP7 (2.5 nM) signalling, BMP responsive luciferase assay (BRE promoter) [8]: 8.9 nM | IC50 of ERFE inhibition of BMP2 (2.5 nM) signalling, BMP responsive luciferase assay (BRE promoter) [9]: 170 nM | IC50 of ERFE inhibition of GDF5 (2.5 nM) signalling, BMP responsive luciferase assay (BRE promoter) [10]: 130 nM | stoichiometry N [11]: 3 and 6 | stoichiometry N [5]: 2

Further lines, with some results ahead:

response ([2]; 10 nM BMP6 + 80 nM CLR*Cys*ΔC1Q ERFE): 19 RU | response ([2]; 10 nM BMP6 + 160 nM CLR*Cys*ΔC1Q ERFE): 17 RU
Molecule: ΔC1Q ERFE (from UniProt Q4G0M1) CLR* (center PGP in the CLR to SSS); C155S; C157S

IC50 of inhibition of 2.5 nM BMP6 signalling, luciferase reporter, BRITER cells [4]: 97 nM
B1: Cys∗ΔC1Q ERFE (domain or fragment, human, UniProt Q4G0M1 44-207, looked up)
chain: PPPGNELPRGPGESRAGPAARPPEPTAERAHSVDPRDAWMLFVRQSDKGVNGKKRSRGKAKKLKFGLPGPPGPPGPQGPPGPIIPPEALLKEFQLLLKGAVRQRERAEPEPSTSGPAGPVAASLAPVSATAGEDDDDVVGDVLALLAAPLAPGPRAPRVEAAFL
notes: erythroferrone (ERFE), human, stop codon at C208, Cys155 and Cys157 mutated to serines (C208 is not in the truncated chain); source: Expi293, transfected, purified; not shown: FLAG, N-terminal, kept
stoichiometry N [3]: 3

IC50 of inhibition of 2.5 nM BMP6 signalling, luciferase reporter, BRITER cells [4]: 27 nM
B2: CLR∗ΔC1Q ERFE (domain or fragment)
chain: PPPGNELPRGPGESRAGPAARPPEPTAERAHSVDPRDAWMLFVRQSDKGVNGKKRSRGKAKKLKFGLPGPPGPSSSQGPPGPIIPPEALLKEFQLLLKGAVRQRERAEPEPCTCGPAGPVAASLAPVSATAGEDDDDVVGDVLALLAAPLAPGPRAPRVEAAFL
stoichiometry N [3]: 2

IC50 of inhibition of 2.5 nM BMP6 signalling, luciferase reporter, BRITER cells [4]: 290 nM
B4: CLR∗Cys∗ΔC1Q ERFE (domain or fragment)
chain: PPPGNELPRGPGESRAGPAARPPEPTAERAHSVDPRDAWMLFVRQSDKGVNGKKRSRGKAKKLKFGLPGPPGPSSSQGPPGPIIPPEALLKEFQLLLKGAVRQRERAEPEPSTSGPAGPVAASLAPVSATAGEDDDDVVGDVLALLAAPLAPGPRAPRVEAAFL

IC50 of inhibition of 2.5 nM BMP6 signalling, luciferase reporter, BRITER cells [4]: 8.7 nM
B7: Cys∗ ERFE (natural protein, human, UniProt Q4G0M1 44-354, looked up)
chain: PPPGNELPRGPGESRAGPAARPPEPTAERAHSVDPRDAWMLFVRQSDKGVNGKKRSRGKAKKLKFGLPGPPGPPGPQGPPGPIIPPEALLKEFQLLLKGAVRQRERAEPEPSTSGPAGPVAASLAPVSATAGEDDDDVVGDVLALLAAPLAPGPRAPRVEAAFLSRLRRDALVERRALHELGVYYLPDAEGAFRRGPGLNLTSGQYRAPVAGFYALAATLHVALGEPPRRGPPRPRDHLRLLICIQSRCQRNASLEAIMGLESSSELFTISVNGVLYLQMGQWTSVFLDNASGCSLTVRSGSHFSAVLLGV
notes: erythroferrone (ERFE), human, residues 44-354, Cys155, 157 and 208 mutated to serines; source: some mutants αFlag resin first; not shown: FLAG, N-terminal, kept
stoichiometry N [11]: 3

IC50 of inhibition of 2.5 nM BMP6 signalling, luciferase reporter, BRITER cells [12]: 13 nM
B8: D90A ERFE (natural protein, human, UniProt Q4G0M1 44-354, looked up)
chain: PPPGNELPRGPGESRAGPAARPPEPTAERAHSVDPRDAWMLFVRQSAKGVNGKKRSRGKAKKLKFGLPGPPGPPGPQGPPGPIIPPEALLKEFQLLLKGAVRQRERAEPEPCTCGPAGPVAASLAPVSATAGEDDDDVVGDVLALLAAPLAPGPRAPRVEAAFLCRLRRDALVERRALHELGVYYLPDAEGAFRRGPGLNLTSGQYRAPVAGFYALAATLHVALGEPPRRGPPRPRDHLRLLICIQSRCQRNASLEAIMGLESSSELFTISVNGVLYLQMGQWTSVFLDNASGCSLTVRSGSHFSAVLLGV

IC50 of inhibition of 2.5 nM BMP6 signalling, luciferase reporter, BRITER cells [12]: 21 nM
B9: N94A ERFE (natural protein, human, UniProt Q4G0M1 44-354, looked up)
chain: PPPGNELPRGPGESRAGPAARPPEPTAERAHSVDPRDAWMLFVRQSDKGVAGKKRSRGKAKKLKFGLPGPPGPPGPQGPPGPIIPPEALLKEFQLLLKGAVRQRERAEPEPCTCGPAGPVAASLAPVSATAGEDDDDVVGDVLALLAAPLAPGPRAPRVEAAFLCRLRRDALVERRALHELGVYYLPDAEGAFRRGPGLNLTSGQYRAPVAGFYALAATLHVALGEPPRRGPPRPRDHLRLLICIQSRCQRNASLEAIMGLESSSELFTISVNGVLYLQMGQWTSVFLDNASGCSLTVRSGSHFSAVLLGV
